These results are taken from US20020032310A1.

The target in the test is KGFR (keratinocyte growth factor receptor, KGFR-type isoform of the FGFR2/BEK gene) (mouse) (UniProt P21803). As to the kind of experiment: cell-based or functional assay.

Take “KGF secreted from NIH 3T3 cells (from UniProt P36363 32-194) (ligand)”: the Transforming Activity was determined as 14000 ffu/pmol DNA.
